Data on 41 sequences can be found in the nanobody polyreactivity screen of Harvey et al. (2022).

This data set can be described thus: yeast display, Sf9 membrane polyspecificity reagent, FACS + sequencing; frameworks hold sequencing errors. The gist of the method:
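A synthetic nanobody library was expressed on Saccharomyces cerevisiae BJ5465 by galactose induction for 36–48 hours. The library was stained for 1 hour at 4 °C with 10% biotinylated, detergent-solubilized Sf9 membrane reagent and enriched with streptavidin microbeads before FACS. Low and high (top ~1%) gates were set on anti-HA fluorescence for expression and streptavidin fluorescence for reagent binding, and each polyreactivity label reflects the gate of origin.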
“QVQLVESGGGLVKAGGSLRLSCDSSGGTFSTYAMGWYRQAPGKERELVAAISWRGGSTYYAVSVKGRFTISRDNAKNTVYLQMNSLKPEYNAVYYCAAYYYRGWLLYWDEMYYWGQGTQVTVSS”: the “polyreactivity (PSR sort gate)” value is “high polyreactivity”.

Consider “QVQLVESGGGLVKAGGSLRLSFAASGRNFRRNAMGWYRQAPGRERELVAAISSSGGSTYYADSVKGRFTISRDNAKNTVYLQMNSLKPEDTAVYYCAVRSRFGYYWGQGTQVTVSS”, for which the “polyreactivity (PSR sort gate)” value is recorded as “high polyreactivity”.

As for “QVQLVESGGGLVKAGGSLRLSSAASGSTFERYAMGWYRQAPGNERELVAAINWSGGGTYYADSVKGRFTISRDTAKNTVYLQMNSLKPEDTAVYYCAADSGTVVFSLWWYEYYYWGQGNQVTVSS”, the “polyreactivity (PSR sort gate)” value is on record as “low polyreactivity”.

For “QVQLVESGGGLVKEGGSLRLSCAASGSIYYENTMGWYRQAPGKERELVASISCGGSTYADSVKGRFTISRDNAKNSVYLQMYSLKAEDSAVYYCNADSSTEYDYWGQGTQVTVSS”, the “polyreactivity (PSR sort gate)” value is recorded as “low polyreactivity”.

On to “QVQLVESGGGLVLAGGSLRLSCAASGIIFKIYAMGWFRQAPGKEMELVADITSVGSTKYADSVKGRFTISRDNAKNTVYLQMNSLKPEDTAVYYCATDWVTSHDDDYWGQGTQVTVSS”, for which the “polyreactivity (PSR sort gate)” value is “low polyreactivity”.

Take “QVQLVESGGGLVLAGGSLRLSCAASGRIFSYYAMGWYRQAPGQERELVAAISWNGGSTYYADSVKGRFTISRDNAKNTVYLQMNSLKPEDTAVYYCAVLPHYEYDYWGQGTQVTVSS”: the “polyreactivity (PSR sort gate)” value is “high polyreactivity”.

As to “QVQLVESGGGLVLAGGSLRLSCAASGRIYRIYNKGWYRQAPGKERELVAAISKSGGGTYYADSVKGRFTISRDNAKNTVYLQMNSLKPEDTAVYYCTTANWDRKSRVFRQSTVGYGYWGQGTQVTVSS”, the “polyreactivity (PSR sort gate)” value is “high polyreactivity”.

For “QVQLVESGGGLVLAGGSLRLSCAASGSISTNYAMGWYRQAPGKERELVAAISDSSGSTYYADSVKGRFTISRDNAKNIVYLQMNSLKPEDTAVYYCNADSQGGRDVNYDYEYYYWGQGTQVTVSS”, the “polyreactivity (PSR sort gate)” value is on record as “low polyreactivity”.

“QVQLVESGGGLVLAGGSLRLSCAASGYTFTIYAMGWYIQGPGKERELVSAITGRGGRTNYADSVKGRFTISRDNAKNTVYLQMNSLKPEDTAVYYCNAVTKVVYHGPYGYDYWGQGTQVTVSS”: the “polyreactivity (PSR sort gate)” value is reported as “high polyreactivity”.

For the sequence “QVQLVESGGGLVLAGGSRRLSCASSGSTFPLYTMGWYRQAPGKERELVAAINYGGTSTYYADSVKGRFTFSRVKAKNTVYLQRNSLKPEDTAVYYCAAERYFLYLCRKFGYWGQGTQVTVSW”, the “polyreactivity (PSR sort gate)” value is reported as “high polyreactivity”.

In the case of “QVQLVESGGGLVLAGGTLRISCAASGSIFYRNTMGWYRLAPVKERELVAAITRGGGRTYYADSVKARFTISRDTAKNTVFLQMNSLKPEDSAVYYCAVQAFSHTSSRMDYWGQGSQVTVSS”, the “polyreactivity (PSR sort gate)” value was “high polyreactivity”.

Turning to “QVQLVESGGGLVLARGTLRLSCPASGFTFSRYAMGWYRQAPGKERELVAAISRTGGRTYYADSVKGRFTISRDNAKNTVYLQMNSLKPVDTAVYYCARLPVHSHLRQTYAMEYWGQGTQVTVSS”, the “polyreactivity (PSR sort gate)” value is recorded as “high polyreactivity”.

Turning to “QVQLVESGGGLVNAGGSLRLSCAASGRITGDNAMVWYRQAPGKVRELVAAISTSRRTYYADSVKGRFTISRDNAKNTVYLQMNSLKPEDTAVYYCNAFGSNGGAMDYWGQGTQLTVSS”, the “polyreactivity (PSR sort gate)” value is “high polyreactivity”.

For “QVQLVESGGGLVNAGGTLRLSCAASGSTFYRNAMGWYRQAPGKERELVATITYSGGSTYYADSVKGRFTNSRDNAKNTVYLQMNSLKPEDTAVYYCAVRRLRRNFVSYYYWGQGTQVTVSS”, the “polyreactivity (PSR sort gate)” value is given as “high polyreactivity”.

Turning to “QVQLVESGGGLVPAGGSLRLSCAASGFTFRRYDMGWYRHAPGKERELVAAISWSSDGTYYADSVKGRFTISRDNAKNTVYLQINSLKPEDTAVYYCAARWGTKSGRYDYWGQGTQVTVSS”, the “polyreactivity (PSR sort gate)” value is listed as “high polyreactivity”.

Consider “QVQLVESGGGLVPAGGSLRLSCAASGRIFGWYAMGWYRQAPGKEREFVAAITVTGGSTYYADSVKGRFTISRDNAKNTVYLQMNSLKPEDTAVYYCAADRWYTRTGFDYWGQGTQVTVSS”, for which the “polyreactivity (PSR sort gate)” value was “low polyreactivity”.

In the case of “QVQLVESGGGLVPAGGSLRLSCAASGRTFIKYAMGWYRQAPGKERELVAAISRSAGSTYYADSVKGRFTISRDNAKNTVYLQMNSLKPEDTAVYYCNAVTSSYLRFDYWGQGTQVSVSS”, the “polyreactivity (PSR sort gate)” value is given as “high polyreactivity”.

As to “QVQLVESGGGLVQAAGSLRLICAASGLTFGANDMGWSRQAPGTERELVAAIDWSGGSTFFADSVKGRFTISRDNAKNTVYLQMNTLKPEDTAVYYCAALGFGYPYPEYDSWGQGTQVTVSA”, the “polyreactivity (PSR sort gate)” value was “low polyreactivity”.

For “QVQLVESGGGLVQAAGSLRLSCAASGFTFYSNVMGWYRQAPGKERELVAAITGRGSRTYYEDSVNGRFTISRDNAKNTVYLQMNSLKTEDTPVYYCAARYTNYGGYYWGQGTQVTVSS”, the “polyreactivity (PSR sort gate)” value is recorded as “high polyreactivity”.

For the sequence “QVQLVESGGGLVQAAGSLRLSCAASGFTIAHYAMGRYSHAPGKERELVAGISRSGGSTYYADSVKGRFTISRDNAKNTVYLQMNILKPEDTAVYYCATVTYLKRVRYQSGYDSWGQGTQVTVSS”, the “polyreactivity (PSR sort gate)” value is given as “low polyreactivity”.

Regarding “QVQLVESGGGLVQAAGSLRLSCAASGITFGLYTMGWYRQAPGKERELVAAISWSGGGTYYADSVKGRFTISRDNAKNTVYLQMNSLKPEDTAVYYCAAPVRGSYPYSVGVDYWGQGTQVTVSS”, the “polyreactivity (PSR sort gate)” value was “high polyreactivity”.

Take “QVQLVESGGGLVQAAGSLRLSCAASGITSRFYVMGWYRQAPGKERESVAAISTRGTSTYYADSVKGRLPISRDNAKNTVYLQMNSLKPEDTAVYYCAAVGGYPYQYPYGSWGQGSQVTVSS”: the “polyreactivity (PSR sort gate)” value is reported as “high polyreactivity”.

With “QVQLVESGGGLVQAAGSLRLSCAASGRIFEIYAMGWYRQAPGKERELVAGITSVGSTNYADSVKGRFTISRDNAKNTVYLQMNSLKPVDTAVYYCAADTSVHSEVDYCGQGTQVTVSS”, the “polyreactivity (PSR sort gate)” value is “low polyreactivity”.

For the sequence “QVQLVESGGGLVQAAGSLRLSCAASGRIFKLYAMGWYRQAPGKDRELVAGITASGGNTYYADSVKGRFTISRDNAKNTVYLLMNSLKPEDTAVYYCNADRYNKYWYDYWGQGTQVTVSS”, the “polyreactivity (PSR sort gate)” value was “high polyreactivity”.

Regarding “QVQLVESGGGLVQAAGSLRLSCAASGSIFDPNVMGWYRQAPGKERELVATISSDGTTTYADSVKGRFTISRDNAKNTVYLQMNSLKPEDTAVYYCATEWDIDPRRSVGYPIGYGYWGQGTQVTVSS”, the “polyreactivity (PSR sort gate)” value was “low polyreactivity”.

On to “QVQLVESGGGLVQAAGSLRLSCAASGSIFSTYAMGWYRQAPGKERELVAAINRGTSTNYADSVKGRFTISRDNAKNTVYLQMNSLKPEDTAVYYCAAYYRGRYGPRRSEYWGQGTQVTVSS”, for which the “polyreactivity (PSR sort gate)” value was “high polyreactivity”.

Regarding “QVQLVESGGGLVQAAGSLRLSCAASVIIFGLYTMGWYRQAPGKERELVAAISDSGGRTYYADSVKGRFTISLDNAKNTVFLQMNSLKPEDTAVYYCAAEFWYVWEYNYWGQGTQVTVSS”, the “polyreactivity (PSR sort gate)” value is listed as “high polyreactivity”.

Regarding “QVQLVESGGGLVQAAGSLRLSSAASGSIFDANANGWYRQPPGKERELVAAITSGGSTYYADSVKGRFTISRVNAKNTVYLQMNSLKPEDTAVYYCAAQYYDYKTTYDYWGKGTQVTVSS”, the “polyreactivity (PSR sort gate)” value is given as “high polyreactivity”.

“QVQLVESGGGLVQAEGRLRLSCAASGRIFPHYAMGWYRQAPGKERELVAAISRSGVSTYYADSVKGRFTISRDIAKNTVYLQMNSLKPEDTAVYYCASRSYILGWRYDYWGQGTQVTVSS”: the “polyreactivity (PSR sort gate)” value is given as “high polyreactivity”.

On to “QVQLVESGGGLVQAEGSLRLSCAASGRTSVLYAMGWNRQAPGKEREFVAAITWNSGSTYYADSVKGRFTISRDNAKNTVYIQMTRLKPEDTAVYYCNADYYFSSYRSTYDYWGQGTQVTVSS”, for which the “polyreactivity (PSR sort gate)” value was “low polyreactivity”.

Regarding “QVQLVESGGGLVQAGAILRLICAASGRIFYRYAMGWYRQAPGKERELVAAISSGGGRTYYADSVKGRFTLSRDNAKNTVYLQMNSLKPEDTAVYYCAASGNSYEQTGGYWGQGTQVTVSS”, the “polyreactivity (PSR sort gate)” value is “high polyreactivity”.

Turning to “QVQLVESGGGLVQAGASLRLSCAASGFISYYYAMGWYRQAPGKERELVAAITKSGGSTYYADSVKGRFTISRDNAKNTVYLQMNSLKREDTAVYYCAAVRSTRNSTSRLYGYWGQGTQVTVSS”, the “polyreactivity (PSR sort gate)” value is on record as “low polyreactivity”.

As for “QVQLVESGGGLVQAGASLRLSCAASGGIFAYYAMGWYRQAPGKERELVAAINRSGGSTRYADSVKGRFTNSRDNAKNTVFLQMNSLKPEETAVYYCATKRSTGYYWGQGTQVTVSS”, the “polyreactivity (PSR sort gate)” value is given as “high polyreactivity”.

Consider “QVQLVESGGGLVQAGASLRLSCAASGGILRQNTMGWYRQAPGKERELVAAISSSGGRTYYADSVKGRFTISRDNAKNTVYLQMNSLKPEDTAVYYCNVPAKRYPYYIRQSTVSPGNYWGQGTKVTVSS”, for which the “polyreactivity (PSR sort gate)” value is recorded as “high polyreactivity”.

As for “QVQLVESGGGLVQAGASLRLSCAASGIIVHEYAMGWYRQAPGKERELVASISWNDGSTYADSVKGRFTISRDNAKITVYLQMNCLKPEDTAVYYCAADYPYYPFSSIYDYWGQGTQVTVSS”, the “polyreactivity (PSR sort gate)” value is “low polyreactivity”.

Turning to “QVQLVESGGGLVQAGASLRLSCAASGITFDPNAMGWYRQAPGKERELVAAISTRGGSTYYADSVKGRFTISRDNAKNTVYLQMNSLKPEETAVYYCNALRTGRWFDYWGQGTQVTVSS”, the “polyreactivity (PSR sort gate)” value is “high polyreactivity”.

For “QVQLVESGGGLVQAGASLRLSCAASGNTFDVYAMGWYREAPGKERELVAAISRRGGSTSYADSVKGRFTISRDNAKNTFYFHMNSLKPEDTAVYYCNTDPGKYTPFDYLGQGTQVTVSS”, the “polyreactivity (PSR sort gate)” value is listed as “high polyreactivity”.

Take “QVQLVESGGGLVQAGASLRLSCAASGRIYPVYTMGWYRQAPGKERELVAAITSSGGSTYYADSVKGSFTISRDNAKNTVYLQMNSLKPEDTAVYDCAKRAGWAYYYWGQGTQVTVSS”: the “polyreactivity (PSR sort gate)” value is “high polyreactivity”.

Turning to “QVQLVESGGGLVQAGASLRLSCAASGRTFVGYAMGWYRQAPGKERELVAAISKSSGSTYYADSVKVRFTISRDNAKNTVYLQMNSLKPEDTAVYYCNAARRQCNRYTYDYWGQGTLVTVSS”, the “polyreactivity (PSR sort gate)” value was “high polyreactivity”.

“QVQLVESGGGLVQAGASLRLSCAASGRTLGYYAMGWSRQEPGKERELVAAISRSGGSTYYADSVKGRFTISRDNAKNTVYLQINSLKPEDTAVYYCAATYGPSRYRYDYWGQGTQVTVSS”: the “polyreactivity (PSR sort gate)” value is “high polyreactivity”.

Consider “QVQLVESGGGLVQAGASLRLSCAASGSIFAAYTMGWYRQAPGTERELVAAISVSTVSTYYADSVKGRFTISRDNAKNTVFLQMNSLKAEVTAVYYCNADATDSYTEKDEHDSWGQGTQLTVSS”, for which the “polyreactivity (PSR sort gate)” value was “low polyreactivity”.
